Measured values as given in FireProtDB (doi:10.1074/jbc.m304177200).

B1: Guanyl-specific ribonuclease Sa, P05798 (parent)
chain: DVSGTVCLSALPPEATDTLNLIASDGPFPYSQDGVVFQNRESVLPTQSYGYYHEYTVITPGARTRGTRRIITGEATQEDYYTGDHYATFSLIDQTC

Variants of: B1
Conditions: Kitasatospora aureofaciens, pH 7, Thermal, CD, MOPS 30 mM, reversible: yes(>95%), structure 1RGG, whole UniProt chain shown; for ddG of mutation (higher = less stable): 48.4 °C

T56V
ddG of mutation (higher = less stable): 7.95 kJ/mol
Tm: 42.1 °C
change of melting temperature, mutant - wild type (higher = more stable): -6.3 °C
unfolding enthalpy (van 't Hoff): 356 kJ/mol

V43T
ddG of mutation (higher = less stable): 2.09 kJ/mol
Tm: 46.8 °C
change of melting temperature, mutant - wild type (higher = more stable): -1.6 °C
unfolding enthalpy (van 't Hoff): 389 kJ/mol

V57T
ddG of mutation (higher = less stable): 18.4 kJ/mol
Tm: 33.4 °C
change of melting temperature, mutant - wild type (higher = more stable): -15 °C
unfolding enthalpy (van 't Hoff): 310 kJ/mol

T59V
ddG of mutation (higher = less stable): 7.11 kJ/mol
Tm: 42.8 °C
change of melting temperature, mutant - wild type (higher = more stable): -5.6 °C
unfolding enthalpy (van 't Hoff): 339 kJ/mol

T18V
ddG of mutation (higher = less stable): 5.86 kJ/mol
Tm: 43.7 °C
change of melting temperature, mutant - wild type (higher = more stable): -4.7 °C
unfolding enthalpy (van 't Hoff): 335 kJ/mol

V2T
ddG of mutation (higher = less stable): 3.77 kJ/mol
Tm: 45.2 °C
change of melting temperature, mutant - wild type (higher = more stable): -3.2 °C
unfolding enthalpy (van 't Hoff): 360 kJ/mol

T67V
ddG of mutation (higher = less stable): 0 kJ/mol
Tm: 48.3 °C
change of melting temperature, mutant - wild type (higher = more stable): -0.1 °C
unfolding enthalpy (van 't Hoff): 368 kJ/mol

T5V
ddG of mutation (higher = less stable): 0 kJ/mol

V36T
ddG of mutation (higher = less stable): 5.44 kJ/mol
Tm: 43.8 °C
change of melting temperature, mutant - wild type (higher = more stable): -4.6 °C
unfolding enthalpy (van 't Hoff): 368 kJ/mol

T16V
ddG of mutation (higher = less stable): -1.26 kJ/mol
Tm: 49.4 °C
change of melting temperature, mutant - wild type (higher = more stable): 1 °C
unfolding enthalpy (van 't Hoff): 368 kJ/mol

T72V
ddG of mutation (higher = less stable): 0.837 kJ/mol
Tm: 47.6 °C
change of melting temperature, mutant - wild type (higher = more stable): -0.8 °C
unfolding enthalpy (van 't Hoff): 381 kJ/mol

T82V
ddG of mutation (higher = less stable): 7.11 kJ/mol
Tm: 42.7 °C
change of melting temperature, mutant - wild type (higher = more stable): -5.7 °C
unfolding enthalpy (van 't Hoff): 339 kJ/mol
